T1: human ecto-TMPRSS6-FLAG (UniProt Q8IU80 77-811)
T1 chain: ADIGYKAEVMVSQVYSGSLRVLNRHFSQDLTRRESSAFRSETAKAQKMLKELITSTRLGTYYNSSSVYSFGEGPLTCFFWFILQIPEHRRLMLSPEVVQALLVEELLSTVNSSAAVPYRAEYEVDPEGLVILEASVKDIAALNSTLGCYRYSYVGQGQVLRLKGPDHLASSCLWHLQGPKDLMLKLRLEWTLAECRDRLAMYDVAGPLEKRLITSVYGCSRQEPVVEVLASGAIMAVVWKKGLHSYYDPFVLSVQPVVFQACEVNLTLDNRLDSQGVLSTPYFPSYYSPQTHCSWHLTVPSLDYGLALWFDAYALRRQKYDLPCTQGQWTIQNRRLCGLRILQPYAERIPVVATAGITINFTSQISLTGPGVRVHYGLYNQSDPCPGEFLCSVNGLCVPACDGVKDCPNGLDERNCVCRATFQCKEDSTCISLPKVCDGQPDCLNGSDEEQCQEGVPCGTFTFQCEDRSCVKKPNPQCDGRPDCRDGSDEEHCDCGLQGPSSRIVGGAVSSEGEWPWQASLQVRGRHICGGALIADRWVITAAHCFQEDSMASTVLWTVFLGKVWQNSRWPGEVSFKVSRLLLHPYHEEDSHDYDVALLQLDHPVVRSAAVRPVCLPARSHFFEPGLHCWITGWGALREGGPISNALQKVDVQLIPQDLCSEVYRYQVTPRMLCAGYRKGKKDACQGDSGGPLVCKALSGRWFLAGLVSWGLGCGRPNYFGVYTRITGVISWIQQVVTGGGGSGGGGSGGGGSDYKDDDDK

T2: matriptase (ST14) over-expressed in HEK293T cells (human, UniProt Q9Y5Y6 1-855)
T2 construct: also called matriptase-1
T2 sequence: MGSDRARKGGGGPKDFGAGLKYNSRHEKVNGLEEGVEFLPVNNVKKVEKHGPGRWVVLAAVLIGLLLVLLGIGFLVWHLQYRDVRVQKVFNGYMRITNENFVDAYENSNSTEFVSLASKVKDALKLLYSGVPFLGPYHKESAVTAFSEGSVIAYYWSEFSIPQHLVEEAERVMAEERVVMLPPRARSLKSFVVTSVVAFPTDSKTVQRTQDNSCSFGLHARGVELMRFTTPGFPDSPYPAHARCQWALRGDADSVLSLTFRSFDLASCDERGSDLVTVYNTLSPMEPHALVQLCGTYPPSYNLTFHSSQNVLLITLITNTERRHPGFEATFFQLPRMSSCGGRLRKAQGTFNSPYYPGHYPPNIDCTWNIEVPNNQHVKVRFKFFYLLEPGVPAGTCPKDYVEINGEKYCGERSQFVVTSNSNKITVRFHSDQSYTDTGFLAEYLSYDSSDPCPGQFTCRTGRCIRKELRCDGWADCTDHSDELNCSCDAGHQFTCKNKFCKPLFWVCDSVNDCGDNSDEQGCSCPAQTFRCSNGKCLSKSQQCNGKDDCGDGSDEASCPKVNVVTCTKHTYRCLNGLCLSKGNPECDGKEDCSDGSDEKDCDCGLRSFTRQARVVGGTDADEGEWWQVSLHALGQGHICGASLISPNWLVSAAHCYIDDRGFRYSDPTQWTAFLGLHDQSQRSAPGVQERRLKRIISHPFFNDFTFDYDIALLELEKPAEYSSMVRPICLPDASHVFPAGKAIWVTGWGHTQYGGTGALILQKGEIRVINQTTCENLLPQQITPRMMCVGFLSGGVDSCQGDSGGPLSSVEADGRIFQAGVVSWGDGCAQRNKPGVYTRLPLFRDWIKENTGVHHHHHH

B1: MWTx-001 anti-TMPRSS6 monoclonal antibody (antibody, mouse IgG2a, kappa, V domains shown)
VH: QVQLQQPGAELAKPGASVKMSCKASGYTFTSYWITWVKQRPGQDLEWIGNIYPGSGSTYYNEKFKSKATLTVDTSSRTAYMQLSSLTSADSAVYYCAPYDSDYAMDYWGQGTSVTVSS
VL: DIKMTQSPSSMYASLGERVTITCKASQDINNYLSWFQQKPGKSPKTLIYRANRLVDGVPSRVSGSGSGQDYSLTISSLEYEDVGIYFCLQYDEFPLTFGAGTKLELKR
notes: Mouse monoclonal antibody from hybridoma (ATCC PTA-126759)
B2: humanized anti-TMPRSS6 antibody variant hzMWTx-002 Var (antibody, human IgG1, kappa, N297A, V domains shown)
VH: EVQLVQSGAEVKKPGASVKVSCKASGFNIKDYYIHWVRQATGQGLEWMGRIDPEDAESEYAPKFQGRVTITADTSTDTAYMELSSLRSEDTAVYYCTRGDSMMVTYFDYWGQGTLVTVSS
VL: DIQMTQSPSSLSASVGDRVTITCKASQDVSTAVAWYQQKPGKAPKLLIYWAFTRHTGVPSRFSGSGSGTDYALTISSLQPEDFATYYCQQHYRSPWTFGGGTKVEIKR
notes: Human IgG1 / kappa
B3: humanized anti-TMPRSS6 antibody variant hzMWTx-001 Var (antibody, human IgG1, kappa, N297A, V domains shown)
VH: EVQLVQSGAEVKKPGASVKVSCKASGYTFTSYWITWVRQAPGQRLEWIGNIYPGSGSTYYNEKFKSKATITRDTSSRTAYMELSSLRSEDTAVYYCAPYDADYAMDYWGQGTLVTVSS
VL: DIQMTQSPSSLSASVGDRVTITCKASQDISNYLSWFQQKPGKAPKLLIYRANRLVEGVPSRFSGSGSGTDFTLTISSLQPEDFATYFCLQYDEFPLTFGGGTKVEIKR
notes: Human IgG1 / kappa
B4: MWTx-002 anti-TMPRSS6 monoclonal antibody (antibody, mouse IgG2b, kappa, V domains shown)
VH: EVQLQQSGAELVKPGASVKLSCTASGFNIKDYYIHWVKERTEQGLEWFGRIDPEDGESEYAPKFQGKATLTADTSSNTAYLQLSSLTSEDTAVYYCTRGDSMMVTYFDYWGQGTTLTVSS
VL: DIVMTQSHKFMSTSVGDRVSITCKASQDVSTAVAWYQQKPGQSPKLLIYWAFTRHTGVPDRFTSTGSGTDYALTISSVQAEDLALYYCQQHYRSPWTFGGGTKLEIKR
notes: Mouse monoclonal antibody from hybridoma (ATCC PTA-126760)
B5: humanized anti-TMPRSS6 antibody variant hzMWTx-003 Var (antibody, human IgG1, kappa, L234A L235A, V domains shown)
VH: QVQLVQSGAEVKKPGASVKVSCKASGFNIEDYYMHWVRQAPGQRLEWMGRIDPEDAETTYSPKFQGRVTIIPDTSANTAYMELSSLRSEDTAVYYCARSIYLDPMDYWGQGTLVTVSS
VL: DIQMTQSPKSLSASVGDRVTITCRASQDVTTALAWYQQKPGQSPKLLIYWATTRHSGVPSRFSGSGSGTDFTLTISSLQPEDFATYYCQQHYSTPYTFGQGTKLEIKR
notes: Human IgG1 / kappa
B6: MWTx-003 anti-TMPRSS6 monoclonal antibody (antibody, mouse IgG2b, kappa, V domains shown)
VH: EVQLQQSGAELVKPGASVKLSCTASGFNIEDYYIHWVKERTEQGLEWIGRIDPEDGETTYAPQFQGKATIIPDTSSNTAYMQLSSLTSEDAAVYYCARSIYLDPMDYWGQGTSVTVSS
VL: DIVMTQSHKFMSTSVGDRVSITCKASQDVTTAVAWYQQKPGQSPKILIYWATTRHTGVPDRFTGSISGTTYILTISSVQAEDLALYYCQQHYSTPYTFGGGTKLEIKR
notes: Mouse monoclonal antibody from hybridoma (ATCC PTA-126761); The recombinant version r4K12B has the same HC and LC; also called r4K12B; recombinant MWTx-003

Target: T1, human ecto-TMPRSS6-FLAG
Experiment: BLI (Octet)

Binder | Kd
B1 | 0.66 nM
B2 | 18.4 nM
B3 | 3.36 nM
B4 | 0.82 nM
B5 | 13.7 nM
B6 | 6.4 nM

Target: T2, matriptase (ST14) over-expressed in …
Experiment: FACS on permeabilized HEK293T cells over-expressing matriptase (ST14)
Excerpt: To determine if anti-TMPRSS6 antibodies bind to homologous matriptases, HEK293T cells over-expressing matriptase (ST14) (SEQ ID NO: 100) (FIGS. 5B, 5E, 5H, 5K, 5N, 5Q), and HEK293T cells over-expressing matriptase-3 (TMPRSS7) (SEQ ID NO: 101) (FIGS. 5C, 5F, 5I, 5L, 5O, 5R) were collected (generated in house). HEK293T cells stably expressing human TMPRSS6 (matriptase-2) (SEQ ID NO: 97) (generated by LakePharma Inc as described above, FIGS. 5A, 5D, 5G, 5J, 5M, 5P) were used as a positive control and HEK293T cells (FIGS. 5A-5R) were used as a negative control (as described above). Cells were blocked and permeabilized with dPBS+3% BSA+0.1% Tween-20 before incubation with various anti-TMPRSS6 antibodies diluted in dPBS+3% BSA+0.1% Tween-20. Cells were incubated with anti-TMPRSS6 antibodies and their humanized variants at a concentration of roughly 1 μg/ml for 1 hr. After incubation, cells were washed with dPBS and incubated with goat anti-mouse IgG conjugated with AlexaFluor-488 (Invitrogen, FIGS. 5A-5I) or goat anti-human IgG conjugated with Allophycocyanin (APC) (Jackson Immuno Research, FIGS. 5J-5R) as a 2° antibody. At last, cells were washed with dPBS and re-suspended with dPBS+1 mM EDTA, and then subjected to FACS analysis using a NOVOCYTE® Flow Cytometer. Bound antibody was determined by excitation at 488 nm and measurement of emission (FITC-A) at 530 nm (FIGS. 5A-5I) or by excitation at 640 nm and measurement of emission (APC-A) at 675 nm (FIGS. 5J-5R). Results for these assays are shown in histogram plots in FIGS. 5A-5R.

Binder | binding result
B1 | no binding (tested: roughly 1 µg/ml)
B2 | no binding (tested: roughly 1 µg/ml)
B3 | no binding (tested: roughly 1 µg/ml)
B4 | no binding (tested: roughly 1 µg/ml)
B5 | no binding (tested: roughly 1 µg/ml)
B6 | no binding (tested: roughly 1 µg/ml)

Source: patent US20250136718A1 (MABWELL THERAPEUTICS, published 2025)
